Results: patent US11325966

What was measured:
Assay in all cases: cell-based or functional assay
[1] = target: HIV-1 Env of pseudovirus X2131_C1_B5 (HIV-1)
[2] = target: HIV-1 Env of pseudovirus CNE30 (HIV-1)
[3] = target: HIV-1 Env of pseudovirus Ce2010_F5 (HIV-1)
[4] = target: HIV-1 Env of pseudovirus WEAU_d15_410_787 (HIV-1)
[5] = target: HIV-1 Env of pseudovirus X1193_c1 (HIV-1)
[6] = target: HIV-1 Env of pseudovirus 620345.c01 (HIV-1)
[7] = target: HIV-1 Env of pseudovirus 3365.v2.c2 (HIV-1)
[8] = target: HIV-1 Env of pseudovirus HIV-16845-2.22 (HIV-1)
[9] = target: HIV-1 Env of pseudovirus C2101.c01 (HIV-1)
[10] = target: HIV-1 Env of pseudovirus CNE8 (HIV-1)
[11] = target: HIV-1 Env of pseudovirus 191084 B7-19 (HIV-1)
[12] = target: HIV-1 Env of pseudovirus CNE58 (HIV-1)
[13] = target: HIV-1 Env of pseudovirus BJOX028000.10.3 (HIV-1)
[14] = target: HIV-1 Env of pseudovirus 9004SS_A3_4 (HIV-1)
[15] = target: HIV-1 Env of pseudovirus Ce2060_G9 (HIV-1)
[16] = target: HIV-1 Env of pseudovirus 6545.v4.c1 (HIV-1)
[17] = target: HIV-1 Env of pseudovirus CNE17 (HIV-1)
[18] = target: HIV-1 Env of pseudovirus T257-31 (HIV-1)
[19] = target: HIV-1 Env of pseudovirus X2088_c9 (HIV-1)
[20] = target: HIV-1 Env of pseudovirus 249M B10 (HIV-1)
[21] = target: HIV-1 Env of pseudovirus 89-F1_2_25 (HIV-1)
[22] = target: HIV-1 Env of pseudovirus R2184.c04 (HIV-1)
[23] = target: HIV-1 Env of pseudovirus 6244_13_B5_4576 (HIV-1)
[24] = target: HIV-1 Env of pseudovirus BJOX010000.06.2 (HIV-1)
[25] = target: HIV-1 Env of pseudovirus R1166.c01 (HIV-1)
[26] = target: HIV-1 Env of pseudovirus T278-50 (HIV-1)
[27] = target: HIV-1 Env of pseudovirus Q259.d2.17 (HIV-1)
[28] = target: HIV-1 Env of pseudovirus 6952.v1.c20 (HIV-1)
[29] = target: HIV-1 Env of pseudovirus QH0692.42 (HIV-1)
[30] = target: HIV-1 Env of pseudovirus SC422661.8 (HIV-1)
[31] = target: HIV-1 Env of pseudovirus ZM233M.PB6 (HIV-1)
[32] = target: HIV-1 Env of pseudovirus Ce0682_E4 (HIV-1)
[33] = target: HIV-1 Env of pseudovirus Ce1172_H1 (HIV-1)
[34] = target: HIV-1 Env of pseudovirus CNE53 (HIV-1)
[35] = target: HIV-1 Env of pseudovirus 3415.v1.c1 (HIV-1)
[36] = target: HIV-1 Env of pseudovirus 211-9 (HIV-1)
[37] = target: HIV-1 Env of pseudovirus TRJO4551.58 (HIV-1)
[38] = target: HIV-1 Env of pseudovirus 928-28 (HIV-1)
[39] = target: HIV-1 Env of pseudovirus Du156.12 (HIV-1)
[40] = target: HIV-1 Env of pseudovirus CNE52 (HIV-1)

## BG18 IgG (354BG18) (antibody)
[1]
  IC50 in TZM-bl assay: 0.002 µg/mL
  IC80 in TZM-bl assay: 0.008 µg/mL
[2]
  IC50 in TZM-bl assay: 0.019 µg/mL
  IC80 in TZM-bl assay: 0.059 µg/mL
[3]
  IC50 in TZM-bl assay: > 30 µg/mL
  IC80 in TZM-bl assay: > 30 µg/mL
[4]
  IC50 in TZM-bl assay: 0.003 µg/mL
  IC80 in TZM-bl assay: 0.012 µg/mL
[5]
  IC50 in TZM-bl assay: 0.005 µg/mL
  IC80 in TZM-bl assay: 0.022 µg/mL
[6]
  IC50 in TZM-bl assay: > 30 µg/mL
  IC80 in TZM-bl assay: > 30 µg/mL
[7]
  IC50 in TZM-bl assay: 0.013 µg/mL
  IC80 in TZM-bl assay: 0.037 µg/mL
[8]
  IC50 in TZM-bl assay: 0.019 µg/mL
  IC80 in TZM-bl assay: 0.09 µg/mL
[9]
  IC50 in TZM-bl assay: > 30 µg/mL
  IC80 in TZM-bl assay: > 30 µg/mL
[10]
  IC50 in TZM-bl assay: > 30 µg/mL
  IC80 in TZM-bl assay: > 30 µg/mL
[11]
  IC50 in TZM-bl assay: 0.011 µg/mL
  IC80 in TZM-bl assay: 0.043 µg/mL
[12]
  IC50 in TZM-bl assay: 0.024 µg/mL
  IC80 in TZM-bl assay: 0.073 µg/mL
[13]
  IC50 in TZM-bl assay: 0.474 µg/mL
  IC80 in TZM-bl assay: 14.9 µg/mL
[14]
  IC50 in TZM-bl assay: 0.005 µg/mL
  IC80 in TZM-bl assay: 0.056 µg/mL
[15]
  IC50 in TZM-bl assay: > 30 µg/mL
  IC80 in TZM-bl assay: > 30 µg/mL
[16]
  IC50 in TZM-bl assay: > 30 µg/mL
  IC80 in TZM-bl assay: > 30 µg/mL
[17]
  IC50 in TZM-bl assay: 0.02 µg/mL
  IC80 in TZM-bl assay: 0.109 µg/mL
[18]
  IC50 in TZM-bl assay: > 30 µg/mL
  IC80 in TZM-bl assay: > 30 µg/mL
[19]
  IC50 in TZM-bl assay: 0.004 µg/mL
  IC80 in TZM-bl assay: 0.009 µg/mL
[20]
  IC50 in TZM-bl assay: > 30 µg/mL
  IC80 in TZM-bl assay: > 30 µg/mL
[21]
  IC50 in TZM-bl assay: > 30 µg/mL
  IC80 in TZM-bl assay: > 30 µg/mL
[22]
  IC50 in TZM-bl assay: > 30 µg/mL
  IC80 in TZM-bl assay: > 30 µg/mL
[23]
  IC50 in TZM-bl assay: 0.011 µg/mL
  IC80 in TZM-bl assay: 0.049 µg/mL
[24]
  IC50 in TZM-bl assay: > 30 µg/mL
  IC80 in TZM-bl assay: > 30 µg/mL
[25]
  IC50 in TZM-bl assay: > 30 µg/mL
  IC80 in TZM-bl assay: > 30 µg/mL
[26]
  IC50 in TZM-bl assay: 2.95 µg/mL
  IC80 in TZM-bl assay: 12.9 µg/mL
[27]
  IC50 in TZM-bl assay: > 30 µg/mL
  IC80 in TZM-bl assay: > 30 µg/mL
[28]
  IC50 in TZM-bl assay: 0.005 µg/mL
  IC80 in TZM-bl assay: 0.011 µg/mL
[29]
  IC50 in TZM-bl assay: 0.013 µg/mL
  IC80 in TZM-bl assay: 0.042 µg/mL
[30]
  IC50 in TZM-bl assay: 0.005 µg/mL
  IC80 in TZM-bl assay: 0.021 µg/mL
[31]
  IC50 in TZM-bl assay: 2.87 µg/mL
  IC80 in TZM-bl assay: 29.8 µg/mL
[32]
  IC50 in TZM-bl assay: > 30 µg/mL
  IC80 in TZM-bl assay: > 30 µg/mL
[33]
  IC50 in TZM-bl assay: 0.002 µg/mL
  IC80 in TZM-bl assay: 0.007 µg/mL
[34]
  IC50 in TZM-bl assay: 0.003 µg/mL
  IC80 in TZM-bl assay: 0.011 µg/mL
[35]
  IC50 in TZM-bl assay: 0.023 µg/mL
  IC80 in TZM-bl assay: 0.087 µg/mL
[36]
  IC50 in TZM-bl assay: 1.3 µg/mL
  IC80 in TZM-bl assay: 5.53 µg/mL
[37]
  IC50 in TZM-bl assay: 3.34 µg/mL
  IC80 in TZM-bl assay: 26.9 µg/mL
[38]
  IC50 in TZM-bl assay: 0.761 µg/mL
  IC80 in TZM-bl assay: 3.93 µg/mL
[39]
  IC50 in TZM-bl assay: 0.003 µg/mL
  IC80 in TZM-bl assay: 0.01 µg/mL
[40]
  IC50 in TZM-bl assay: 0.012 µg/mL
  IC80 in TZM-bl assay: 0.045 µg/mL
